In US20220363738A1:

Target: T1, Calnexin (Cnx) on the surface of human cells (MDA-MB-231 ER-G2, Huh7, KP4) (human), P27824
T1 chain: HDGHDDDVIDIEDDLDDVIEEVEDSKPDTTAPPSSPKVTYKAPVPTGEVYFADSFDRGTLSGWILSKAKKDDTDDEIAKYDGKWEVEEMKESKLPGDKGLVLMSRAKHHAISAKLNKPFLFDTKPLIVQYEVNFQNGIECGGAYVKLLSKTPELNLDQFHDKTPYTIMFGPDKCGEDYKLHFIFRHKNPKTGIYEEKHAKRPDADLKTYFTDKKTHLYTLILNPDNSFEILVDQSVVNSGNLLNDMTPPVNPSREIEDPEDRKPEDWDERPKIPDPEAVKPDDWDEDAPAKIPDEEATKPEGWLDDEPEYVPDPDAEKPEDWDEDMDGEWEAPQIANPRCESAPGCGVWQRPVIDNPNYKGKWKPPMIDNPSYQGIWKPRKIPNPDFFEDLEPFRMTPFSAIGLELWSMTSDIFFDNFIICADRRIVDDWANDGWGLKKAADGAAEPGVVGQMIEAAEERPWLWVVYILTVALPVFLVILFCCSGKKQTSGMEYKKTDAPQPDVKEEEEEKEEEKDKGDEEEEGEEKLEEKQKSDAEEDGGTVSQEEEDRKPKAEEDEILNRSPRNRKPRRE
Experiment: proximity ligation assay on live, intact cells, probes for Cnx and ERp57
Conditions: remark: other sources report otherwise

- proximity ligation assay signal, fold increase in MDA ER-G2 against wild-type MDA cells: 10 fold
B1: ERp57 (PDIA3) on the surface of human MDA-MB-231 ER-G2 cells, P30101 25-505 (enzyme, UniProt P30101 25-505, looked up)
chain: SDVLELTDDNFESRISDTGSAGLMLVEFFAPWCGHCKRLAPEYEAAATRLKGIVPLAKVDCTANTNTCNKYGVSGYPTLKIFRDGEEAGAYDGPRTADGIVSHLKKQAGPASVPLRTEEEFKKFISDKDASIVGFFDDSFSEAHSEFLKAASNLRDNYRFAHTNVESLVNEYDDNGEGIILFRPSHLTNKFEDKTVAYTEQKMTSGKIKKFIQENIFGICPHMTEDNKDLIQGKDLLIAYYDVDYEKNAKGSNYWRNRVMMVAKKFLDAGHKLNFAVASRKTFSHELSDFGLESTAGEIPVVAIRTAKGEKFVMQEEFSRDGKALERFLQDYFDGNLKRYLKSEPIPESNDGPVKVVVAENFDEIVNNENKDVLIEFYAPWCGHCKNLEPKYKELGEKLSKDPNIVIAKMDATANDVPSPYEVRGFPTIYFSPANKKLNPKKYEGGRELSDFISYLQREATNPPVIQEEKPKKKKKAQEDL
modifications: here or on the partner: O-GalNAc (Tn) glycosylation at T50, T59, T66, T79, S81 and S86 after GALA activation
